Data as given in patent publication US8409833B2 (Hokko Chemical Industry Co., Ltd., priority 2003, dated 2013).
Entries after “also recorded” stand apart in the source; their conditions may differ.

What was measured:
Format in all cases: biochemical
[1] = Optimum pH of scyllo-inositol dehydrogenase; settings: 200 mM phosphate buffer (pH 5.0 to 9.0); 90% or more of the maximum activity
Description: The optimum pH can be confirmed by: mixing 5 μl of a reaction solution (200 mM […] of pH 5.0 to 9.0 containing 2% of NADPH, and 1% of scyllo-inosose) and 5 μl of an enzyme solution; allowing the mixture to react at 36° C. for 30 minutes; adding 500 μl of water immediately after the completion of the reaction; determining the absorbance at 340 nm; and determining a decrease in the absorbance at 340 nm with respect to a blank value of a test solution containing water instead of the enzyme solution. The term “optimum pH” means a pH at which the enzyme has 90% or more of the maximum activity. The enzyme of the present invention can be divided depending on, for example, a range of the optimum pH into groups each having: an optimum pH in an acidic region (optimum pH is pH of 5.5 to 6.5); an optimum pH in a neutral region (optimum pH is pH of 6.5 to 7.5 or 6.5 to 8.5); and an optimum pH in an alkaline region (optimum pH is pH of 7.0 to 8.5 or 7.5 to 9.0).
The optimum pH of the enzymes of the present invention was determined by: mixing 5 μl of a reaction solution (200 mM phosphate buffer (pH 5.0 to 9.0), 2% of NADPH, and 1% of scyllo-inosose) with 5 μl of an enzyme solution; and allowing the mixture to react at 36° C. for 30 min. After the reaction, 500 μl of water was immediately added thereto, and the absorbance at 340 nm was measured. From the blank value of a test solution prepared by using water instead of the enzyme solution, the decrease in the absorbance at 340 nm was measured. The enzyme solution was diluted as required.

[2] = Effects of heavy metal on scyllo-inositol dehydrogenase; settings: 2 mM heavy metal in reaction solution, no addition group = 100%
Description: Effects by the heavy metals can be confirmed by: mixing 5 μl of a reaction solution (200 mM Tris buffer of pH 8.0 containing 2% of NADPH, 1% of scyllo-inosose, and 2 mM metal salt) and 5 μl of an enzyme solution; allowing the mixture to react at 36° C. for 30 minutes; adding 500 μl of water immediately after the completion of the reaction; determining the absorbance at 340 nm; and determining a decrease in the absorbance at 340 nm with respect to a blank value of a test solution containing water instead of the enzyme solution. The term “activated” means the case where the enzymatic activity of a fraction added with 1 mM of a heavy metal is 105% or more, preferably 120% or more, with respect to the enzymatic activity of a fraction added with no heavy metal as 100%. On the other hand, the term “inhibited” means the case where the enzymatic activity of the fraction added with 1 mM of a heavy metal is 95% or less, preferably 70% or less, with respect to the enzymatic activity of the fraction added with no heavy metal as 100%.
The effects of heavy metal on the enzymes of the present invention were determined by: mixing 5 μl of a reaction solution (200 mM Tris buffer (pH 8.0), 2% of NADPH, 1% of scyllo-inosose, and 2 mM of a heavy metal) with 5 μl of an enzyme solution; and allowing the mixture to react at 36° C. for 30 min. After the reaction, 500 μl of water was immediately added thereto, and the absorbance at 340 nm was measured. From the blank value of a test solution prepared by using water instead of the enzyme solution, the decrease in the absorbance at 340 nm was measured. The enzyme solution was diluted as required. CaCl2, CoCl2, ZnSO4, MgSO4, SnCl2, NiCl2, and MnSO4 were used as metallic salts. The activity of the no addition group was defined as 100%, and the relative activities were compared. […] Most of the enzymes were inhibited in the presence of Zn^2+ ion, in contrast, the enzyme derived from Bacillus subtilis 168 was activated in the presence of Zn^2+ ion.

[3] = Enzyme reaction product of scyllo-inosose reduction measured by HPLC; settings: for share of scyllo-inositol in the product of scyllo-inosose reduction: 10 mg scyllo-inosose, 40 mg NADPH, 10 U enzyme, 36° C., 4 hours, myo-inositol not detected; for Reduction reaction product: SIS: scyllo-inosose, SI: scyllo-inositol
Description: Meanwhile, the enzyme reaction product was measured as follows: 10 mg of scyllo-inosose, 40 mg of NADPH, and 10 U of the enzyme were allowed to react in 1.0 ml of 100 mM Tris buffer (pH 8.0) at 36° C. for 4 hours, and a heat treatment was performed at 80° C. for 10 min, followed by cooling. Then, 100 μl of a strong base cation exchange resin, 100 μl of a strong acid anion exchange resin, and 10 mg of activated carbon were added, and the mixture was stirred and centrifuged. Then, the supernatant was diluted 2-fold, and measurement was performed by HPLC (Shodex Asahipak NH2P-50 4E Φ 4.6×250 mm: Shodex) using an RI detector under the condition of a column temperature of 40° C. and a mobile phase flow rate of 1.5 ml (80% acetonitrile). […] Meanwhile, the sequence of the ydgJ gene is shown in SEQ ID NO: 1, and the amino acid sequence corresponding thereto is shown in SEQ ID NO: 2.
Meanwhile, enzyme reaction product was measured as follows: 10 mg of scyllo-inosose, 40 mg of NADPH, and 10 U of the enzyme were allowed to react in 1.0 ml of 100 mM Tris buffer (pH 8.0) at 36° C. for 4 hours, and a heat treatment was performed at 80° C. for 10 min, followed by cooling. Then, 100 μl of a strong base cation exchange resin, 100 μl of a strong acid anion exchange resin, and 10 mg of activated carbon were added, and the mixture was stirred and centrifuged. Then, the supernatant was diluted 2-fold, and measurement was performed by HPLC (Shodex Asahipak NH2P-50 4E Φ 4.6×250 mm: Shodex) using an RI detector under conditions of a column temperature of 40° C. and a mobile phase flow rate of 1.5 ml (80% acetonitrile).

[4] = Km values of scyllo-inositol dehydrogenase for scyllo-inosose (reciprocal plot); settings: NADPH, pH 8.0, 36° C.
Description: The determination is carried out such that the Km value is calculated after reciprocal plot according to the general method.
After the reaction, […] of water was immediately added thereto, and the absorbance at 340 nm was measured. From the blank value of a test solution prepared by using water instead of the enzyme solution, the decrease in the absorbance at 340 nm was measured. The enzyme solution was diluted as required. The Km values were calculated by the reciprocal plot.

[5] = Substrate specificity of scyllo-inositol dehydrogenase (relative activity of oxidation, absorbance at 545 nm); settings: relative to reactivity to scyllo-inositol, NADP^+, pH 8.0, 25° C.
Description: Examples of an inositol isomer include scyllo-inositol (SI), myo-inositol (MI), D-chiro-inositol (DCI), L-chiro-inositol (LCI), epi-inositol (EI), muco-inositol (MuI), allo-inositol (AI), and neo-inositol (NI).
The inositol isomers include scyllo-inositol (SI), myo-inositol (MI), D-chiro-inositol (DCI), L-chiro-inositol (LCI), epi-inositol (EI), muco-inositol (MuI), allo-inositol (AI), and neo-inositol (NI).
The reaction rate was calculated from the absorbance increments at the respective times.

B1: AB10121 Atu4375 gene: recombinant scyllo-inositol dehydrogenase, Atu4375 gene product of Agrobacterium sp. AB10121 FERM P-17383, SEQ ID NO: 10 (protein, listed as Agrobacterium sp.)
chain: MSSAPKKFDSRRIRLGMVGGGQGAFIGAVHRIAARLDDRYELVAGALSSDPARAAASATLLGIAPERSYASFEEMAAAEAGRDDGIEAVAIVTPNHLHFAPSKAFLEAGIHVICDKPVTATLEEAKALAEIVRASDSLFVLTHNYTGYAMLRQMRQMVADGAIGKLRHVQAEYAQDWLTEAVEKTGAKGAEWRTDPSRSGAGGAIGDIGTHAFNAAAFVTGEIPKSLYADLTSFVPGRQLDDSANILLRYESGAKGMLWASQIAVGNENALSLRVYGEKGGLEWHHRVPDELWFTPYGEPKRLITRNGAGAGAAANRVSRVPSGHPEGYLEGFATIYREAADAIIAKREGKAAAGEVIYPGMEDGLAGLAFIDAAVRSSQTSTWINIDI
[1]
  Optimum pH: pH 6.5-8.5
[2]
  Heavy metal effects: activation: Co, Mn
  Heavy metal effects: strong inhibition: Sn, Zn
[3]
  share of scyllo-inositol in the product of scyllo-inosose reduction: 100%
  Reduction reaction product: Only SIS → SI
[4]
  Km: 9.8 mM
[5]
  Substrate specific Relative activity (20 to 70%): LCI, MuI
  Substrate specific Relative activity (70% or more): SI, MI, DCI, EI
  Substrate specific Relative activity (less than 20%): AI, NI

B2: BG14057 gene: recombinant scyllo-inositol dehydrogenase, BG14057 gene product of Bacillus subtilis 168 ATCC23857, SEQ ID NO: 8 (protein, listed as Bacillus subtilis)
chain: MITLLKGRRKVDTIKVGILGYGLSGSVFHGPLLDVLDEYQISKIMTSRTEEVKRDFPDAEVVHELEEITNDPAIELVIVTTPSGLHYEHTMACIQAGKHVVMEKPMTATAEEGETLKRAADEKGVLLSVYHNRRWDNDFLTIKKLISEGSLEDINTYQVSYNRYRPEVQARWREKEGTATGTLYDLGSHIIDQTLHLFGMPKAVTANVMAQRENAETVDYFHLTLDYGKLQAILYGGSIVPANGPRYQIHGKDSSFIKYGIDGQEDALRAGRKPEDDSWGADVPEFYGKLTTIRGSDKKTETIPSVNGSYLTYYRKIAESIREGAALPVTAEEGINVIRIIEAAMESSKEKRTIMLEH
[1]
  Optimum pH: pH 7.0-8.5
[2]
  Heavy metal effects: activation: Co, Mn, Zn
  Heavy metal effects: strong inhibition: Sn
[2]; listed as enzyme derived from Bacillus subtilis 168
  Heavy metal effects: activation: Zn^2+ ion
[3]
  share of scyllo-inositol in the product of scyllo-inosose reduction: 100%
  Reduction reaction product: Only SIS → SI
[4]
  Km: 3.5 mM
[5]
  Substrate specific Relative activity (20 to 70%): DCI, EI, AI, NI
  Substrate specific Relative activity (70% or more): SI, MI
  Substrate specific Relative activity (less than 20%): LCI, MuI

B3: AB10121 Atu3234 gene: recombinant scyllo-inositol dehydrogenase, Atu3234 gene product of Agrobacterium sp. AB10121 FERM P-17383, SEQ ID NO: 12 (protein, listed as Agrobacterium sp.)
chain: MAIEGKTTDKANKRIRLGMVGGGSGAFIGGVHRMAARLDNRFDLVAGALSSTPEKSLASGRELGLDPERCYGSFEEMAEKEALREDGIEAVAIVTPNHVHYPAAKAFLERGIHVICDKPLTSNLEDAKKLKDVADKADALFILTHNYTGYPMVRHARELVESGALGTIRLVQMEYPQDWLAEPIEQTGAKQAVWRTDPAQSGAGGSTGDIGTHAYNLGCFISGLEVDELAADVHTFVEGRRLDDNAHVMLRFKPKGGKQPAKGLLWCSQVAVGHENGLKVRVYGDKAGIEWTQADPNYLWFTKLGELKQLITRGGAGAGAAAARVTRIPSGHPEGYLEAFATIYTEAAHAIEARRTGSVLDKAVIYPTVDDGVKGVAFVTACIESGKKNGVWVKL
[1]
  Optimum pH: pH 7.0-8.5
[2]
  Heavy metal effects: activation: Co, Mn, Ca
  Heavy metal effects: strong inhibition: Sn, Zn
[3]
  share of scyllo-inositol in the product of scyllo-inosose reduction: 100%
  Reduction reaction product: Only SIS → SI
[4]
  Km: 3.1 mM
[5]
  Substrate specific Relative activity (20 to 70%): MuI
  Substrate specific Relative activity (70% or more): SI, MI, DCI, EI, and LCI
  Substrate specific Relative activity (less than 20%): AI, NI

B4: Xcc3438 gene: recombinant scyllo-inositol dehydrogenase, Xcc3438 gene product of Xanthomonas campestris pv. campestris ATCC33913, SEQ ID NO: 14 (protein)
chain: MPKPFNLAVVGYGYVGRTFHAPLIASTPGLQLHSVVSSKPQQPQADFREVRVLPDLEAALADPALDAVVIATPNQTHAPMALQALAAGKHVLVDKPFALDAAQARTVVDAAAEAGKIVSVFQNRRWDADFLTVRRLIEDGQLGEVVEFHSHFDRYRPQVRDRWRESDIPGAGLWYDLGPHLLDQALQLFGMPQAISADLQRQRTQARSDDYFNVVLRYPRLRVILHAGSLVADGSLRFAVHGTRGSYLKHGADTQEDQLRAGRRPGTAGWGMDPLPGTLTRVDDEGRVHTHQPDGVPGDYRHCYAAFRDAMAGTAPPPVSAADAVRLMELLELAQRGAALGQVLWLEGNSSD
modifications: Xanthomonas campestris pv. campestris
[1]
  Optimum pH: pH 6.5-7.5
[2]
  Heavy metal effects: activation: Co
  Heavy metal effects: strong inhibition: Sn, Zn
[3]
  share of scyllo-inositol in the product of scyllo-inosose reduction: 100%
  Reduction reaction product: Only SIS → SI
[4]
  Km: 9.1 mM
[5]
  Substrate specific Relative activity (70% or more): SI, DCI
  Substrate specific Relative activity (less than 20%): EI, LCI, MuI,; also recorded: AI, NI
